What all share (conditions): remark: other sources report otherwise
The target of experiment [1] is recombinant soluble homotrimeric HA of A/Japan/305/57 (H2N2) (Influenza A virus A/Japan/305/1957 (H2N2)). The experiment can be described thus: HA microarray, BCC supernatant.
Experiment [2] has as its target recombinant soluble homotrimeric HA of A/chicken/Vietnam/NCVD-016/08 (H5N1) (Influenza A virus A/chicken/Vietnam/NCVD-016/2008 (H5N1)). Description: HA microarray, BCC supernatant.
Experiment [3] has as its target recombinant soluble homotrimeric HA of A/Solomon Islands/3/06 (H1N1) (Influenza A virus A/Solomon Islands/3/2006 (H1N1)). The experiment can be described thus: HA microarray, BCC supernatant.
The target of experiment [4] is recombinant soluble homotrimeric HA of A/Wisconsin/67/05 (H3N2) (Influenza A virus A/Wisconsin/67/2005 (H3N2)). Description: HA microarray, BCC supernatant.
Experiment [5] addresses recombinant homotrimeric HA, A/Solomon Islands/3/06 H1N1 (Influenza A virus A/Solomon Islands/3/06 (H1N1)). Description: trimeric HA microarray; transfection supernatant set 3.
Experiment [6] deals with recombinant soluble homotrimeric HA of A/Indonesia/5/05 (H5N1) (Influenza A virus A/Indonesia/5/2005 (H5N1)). Description: HA microarray, BCC supernatant.
Experiment [7] deals with recombinant soluble homotrimeric HA of A/Vietnam/1203/04 (H5N1) (Influenza A virus A/Vietnam/1203/2004 (H5N1)). The experiment can be described thus: HA microarray, BCC supernatant.
For experiment [8], the target named is recombinant soluble homotrimeric HA of A/Anhui/1/05 (H5N1) (Influenza A virus A/Anhui/1/2005 (H5N1)). Description: HA microarray, BCC supernatant.
Experiment [9] concerns the target recombinant soluble homotrimeric HA of A/duck/Yangzhou/02/2005 (H8N4) (Influenza A virus A/duck/Yangzhou/02/2005 (H8N4)). Description: HA microarray, BCC supernatant.
Experiment [10] deals with recombinant soluble homotrimeric HA of A/California/4/09 (H1N1) (Influenza A virus A/California/04/2009 (H1N1)). Description: HA microarray, BCC supernatant.
Experiment [11] concerns the target recombinant soluble homotrimeric HA of A/Egypt/3300-NAMRU3/08 (H5N1) (Influenza A virus A/Egypt/3300-NAMRU3/2008 (H5N1)). Description: HA microarray, BCC supernatant.
Experiment [12] deals with recombinant soluble homotrimeric HA, A/chicken/Vietnam/NCVD-016/08 (H5N1) (influenza A virus A/chicken/Vietnam/NCVD-016/2008 (H5N1)). The experiment can be described thus: microarray, trimeric HA, transfection supernatant.
Experiment [13] deals with recombinant soluble homotrimeric HA, A/Hong Kong/156/97 (H5N1) (influenza A virus A/Hong Kong/156/97 (H5N1)). Description: microarray, trimeric HA, transfection supernatant.
Experiment [14] addresses recombinant homotrimeric HA, A/Wisconsin/67/05 H3N2 (Influenza A virus A/Wisconsin/67/05 (H3N2)). The experiment can be described thus: trimeric HA microarray; transfection supernatant set 5.
Experiment [15] concerns the target recombinant homotrimeric HA, A/Egypt/3300-NAMRU3/08 H5N1 (Influenza A virus A/Egypt/3300-NAMRU3/08 (H5N1)). The description is as above.
The target in experiment [16] is recombinant soluble homotrimeric HA, A/northern shoveler/California/HKWF115/2007 (H6N1) (influenza A virus A/northern shoveler/California/HKWF115/2007 (H6N1)). The experiment can be described thus: microarray, trimeric HA, transfection supernatant.
Experiment [17] concerns the target recombinant soluble homotrimeric HA, A/Anhui/1/05 (H5N1) (influenza A virus A/Anhui/1/2005 (H5N1)). Description: microarray, trimeric HA, transfection supernatant.
Experiment [18] deals with T1, recombinant homotrimeric HA, A/swine/Ontario/01911-2/99 H4N6 (Influenza A virus A/swine/Ontario/01911-2/99 (H4N6)). The experiment can be described thus: trimeric HA microarray; transfection supernatant set 5.
Experiment [19] concerns the target recombinant soluble homotrimeric HA of A/northern shoveler/California/HKWF115/2007 (H6N1) (Influenza A virus A/northern shoveler/California/HKWF115/2007 (H6N1)). Description: HA microarray, BCC supernatant.
For experiment [20], the target named is recombinant soluble homotrimeric HA of A/Netherlands/219/03 (H7N7) (Influenza A virus A/Netherlands/219/03 (H7N7)). Description: HA microarray, BCC supernatant.
The target in experiment [21] is T1, recombinant homotrimeric HA, …. The experiment can be described thus: trimeric HA microarray; transfection supernatant set 2.
Experiment [22] addresses recombinant soluble homotrimeric HA, A/Netherlands/219/03 (H7N7) (influenza A virus A/Netherlands/219/03 (H7N7)). Description: microarray, trimeric HA, transfection supernatant.
For experiment [23], the target named is recombinant soluble homotrimeric HA, A/duck/Yangzhou/02/2005 (H8N4) (influenza A virus A/duck/Yangzhou/02/2005 (H8N4)). The experiment can be described thus: microarray, trimeric HA, transfection supernatant.
Experiment [24] has as its target recombinant homotrimeric HA, A/California/4/09 H1N1 (Influenza A virus A/California/4/09 (H1N1)). Description: trimeric HA microarray; transfection supernatant set 5.

B1: TCN-529 (5297_H01) (antibody, V domains shown)
VH: QITLRESGPTLVKPTQTLTLTCTFSGFSLSTNGVNVGWIRQPPGKALEWLALIYWDDDKRYSPSLKRRLTITKDTSKNQVVLTLTNMDPVDTATYYCAHRPDFYGDFEYWGPGTLVTVSS
VL: QSALTQPASVSGSPGQSITISCTGSSSDIGGYNYVSWYQQHPGKAPKLMIYDVNNRPSGVSNRFSGSKSGNTASLTISGLQTDDEADYYCGSYTGSPHYVFGTGTKVTVL
Regarding B1, the Trimeric HA Binding RLU came out at 435 RLU in [1], 410 RLU in experiment [2], 179 RLU in [3] and 51600 RLU in [4]. Also, in [5], the Trimeric HA Binding: RLU worked out at 43 RLU.

B2: TCN-551 (5243_D01) (antibody, V domains shown)
VH: EVQLVQSGSEVKKPGESLKISCKGSGYSFSNYWIGWVRHMPGKGLEWMGIIYPGDSDTRYSPSFQGQVTMSADKSSSTVYLQWSSLKASDTAIYYCARRGGHSFGYGSGGDTHSEFDSWGQGTLVTVSS
VL: QSVLTQSPSVSAAPGQKVTISCSGSDSNIGDYFVCWYQHLPGKPPQLLIYENNKRPSGIPDRFSGSKSGTSATLGITGIQTGDEADYYCATWDGSLSAWVFGGGTKLTVL
For B2, the Trimeric HA Binding RLU was 22600 RLU in [1]; 53500 RLU in experiment [6]; 4150 RLU in experiment [7]; 4190 RLU in experiment [8]; 9820 RLU in experiment [9]; 53400 RLU in experiment [10]. Further, the Trimeric HA Binding RLU is 47200 RLU in [11]; 53800 RLU in [3]; 6840 RLU in experiment [4]; 792 RLU in [12]; 792 RLU in [13]. Moreover, the values for the Trimeric HA Binding: RLU in [14] and in experiment [15] were 936 RLU and 17400 RLU, respectively.

B3: TCN-539 (5056_A08) (antibody, V domains shown)
VH: QVQLVESGGGVVQPGRSLRLSCAASEITFITYAMHWVRQAPGKGLEWVALISDDGSNKFYADSVKGRFTISRDNSKNTLYLQMNSLRAEDTAAYYCAREGVYFDSGTYRGYFDYWGQETLVTVSS
VL: EIVLTQSPATLSLSPGERATLSCRASQSVSSYLAWYQQKPGQAPRLLIYDASNRATGIPARFSGSGSGTDFTLTISSLEPEDFAVYYCQQRSHWPPITFGQGTRLEIK
Take B3: the Trimeric HA Binding RLU in experiment [1] amounted to 468 RLU; in experiment [7], 545 RLU; in experiment [11] it was 11400 RLU; in experiment [2], 100 RLU; in [3] it was 239 RLU; in [4] it was 715 RLU. Besides, the Trimeric HA Binding RLU in experiment [12] worked out at 3500 RLU; in experiment [16], 2860 RLU; in experiment [13], 1450 RLU; in experiment [17], 3240 RLU. The Trimeric HA Binding: RLU is 6510 RLU in experiment [18] and 24300 RLU in [15].

B4: TCN-538 (3206_O17) (antibody, V domains shown)
VH: QITLKESGPTLVKPTQTLTLTCVFSGFSLSITGVRVGWIRQPPGKALEWLALISWDDEKHYSPSLQSRLTITKDTSKNQVVLTMTNLDPVDTATYYCARSTDRGHVLRYFGWMLPGDAFDVWGQGTMVTVSS
VL: DIVMTQSPDFLPVSLGERATINCKSSQRVLYSSNNKNYLAWYQLKPGQPPKLIIYWASTRESGVPDRFSGSGSGTEFTLTISSLQAEDVAVYYCQQYYSRPYTFGQGTKLEIK
B4: the Trimeric HA Binding RLU was found to be 43000 RLU in experiment [1]; 26400 RLU in [6]; 17400 RLU in experiment [19]; 6120 RLU in [9]; 13800 RLU in [10]; 23600 RLU in experiment [11]. Besides, the Trimeric HA Binding RLU turned out to be 6530 RLU in [20]; 37300 RLU in experiment [2]; 33200 RLU in experiment [3]; 6900 RLU in experiment [4]; 2950 RLU in [12]; 8900 RLU in experiment [16]. Moreover, the Trimeric HA Binding RLU in experiment [13] amounted to 5170 RLU. In addition, in experiment [14], the Trimeric HA Binding: RLU was determined as 2070 RLU.

B5: TCN-522 (3212_I12) (antibody, V domains shown)
VH: QVQLQQWGAGLLKPSETLSLTCTVSGGSLTDYSWNWIRQPPGKGLEWIGDTLHNGYTNYNPSLRGRVSISIDTSKNQVSLRLTSVTAADTALYYCARGSGGYGGFDYFGKLRTWDFWGQGTLVTVSS
VL: DIQLTQSPSSLSASVGDRVTITCRASQGIRNDLGWYQQKPGNAPKRLIFGASSLQSGVPSRFSGSGSGTEFTLTISSLQPEDFATYYCLQHNSYPYTFGQGTKLEIK
Consider B5, for which the Trimeric HA Binding RLU worked out at 989 RLU in experiment [1]; 67 RLU in experiment [6]; 145 RLU in [7]; 5020 RLU in experiment [10]; 38900 RLU in [3]; 302 RLU in experiment [4]. For the same molecule, the Trimeric HA Binding: RLU in [21] is 1050 RLU.

B6: TCN-547 (5092_F11) (antibody, V domains shown)
VH: QVQLQESGPGLVKPSQTLSLTCTVSGDSISSVDHYWSWIRQHPVKGLEWIGFMYYSASTYYNPSLKSRVTISTDTSKNQFSLRLSSVTAADTAVYYCARGTCAGDCSLHYYYYGLDVWGQGRTVTVSS
VL: DIQMTQSPSSLSASVGDRVTITCRASQSISSYLNWYQHKPGKAPKVLMYAVSILQSGVPSRFSGSGSGADFTLTISSLQPEDFATYYCQQSYSSPLTFGGGTKVEIK
For B6, the Trimeric HA Binding RLU in [1] came out at 40 RLU; in experiment [9], 278 RLU; in experiment [10], 170 RLU; in experiment [20], 401 RLU; in [2] it was 198 RLU; in experiment [3], 155 RLU. Also, the Trimeric HA Binding RLU in experiment [4] came out at 16900 RLU; in experiment [22], 2090 RLU; in [12], 1320 RLU; in experiment [16], 2620 RLU; in experiment [23], 3340 RLU. Also, the Trimeric HA Binding: RLU in experiment [24] worked out at 1470 RLU.

B7: TCN-545 (5082_I15) (antibody, V domains shown)
VH: QVQLQQWGAGLLKPSETLSLSCAVFGGSFSDYYWTWIRQPPGKGLEWIGEIKHSGRTNYNPSLESRVTISVDTSKNQFSLKLSSVTAADTAIYYCARGTDPDTEGYCRSGSCSAFDFWGQGTLVTVSS
VL: EIVLTQSPGTLSLSPGERATLSCRASHFVNYRSLAWYQQTPGQVPRLLIYGASTRATGIPDRFSGSGSGTDFTLTISRLEPEDFAVYFCQQYGGSPRYTFGQGTRLEIK
For the molecule B7, the Trimeric HA Binding RLU in experiment [1] turned out to be 157 RLU; in experiment [7], 235 RLU; in experiment [10], 365 RLU; in experiment [2], 392 RLU; in experiment [4], 575 RLU; in experiment [12] it was 3230 RLU. Further, the Trimeric HA Binding RLU in experiment [23] was 13200 RLU; in [13], 1560 RLU; in experiment [17], 4880 RLU. In addition, in experiment [24], the Trimeric HA Binding: RLU turned out to be 818 RLU.

For the origin of these results see US20150104459A1.
